The series in a line: label from the status in PepcDB records.

For “MDDSAGHSGEDNALMEKHFMAAVVVTFQSGSTIDVCLARLRAAKDVAEICVVDNGSHDETLNIVQCHALADPRVRFVANLDNPGFAAACNQGAADVSAPWLVFVNPDLMVEPEILAQLRAYAEVYVPALLGVEQVDEHGYPDPAVRRRDPDFAAMLRNPRRGTQLAIPADPTQSLQLVPALSGALMLMSRLLFERLGGWDVGYRLHAEDLDLCRRARQVGATVAVVNTLQVVHLRGVSSRSRPFFVEWHKHCGLWRYFCKFEAPQRGLPVRLGVWLAIWSHAFFQCLGVWLRRR”, the protein production result was “failed”.

Turning to “MDDSYMMVPMRRKRSQCDLAQMVQAIEEYDGSTQCEIDIDECASHPCKNGATCIDQPGNYFCQCVPPFKVFNFDGISSTSVQEFYHCEFGPCKASDSCENGAVRGEKMDLEMFPLEFRCQCASFSGPRCEINVNECSSSPCLHGYCYDMVDGFSCLCNPGYVGIRCEQDIDDCILNACEHNSTCKDLHLSYQCVCLSDWEGNFCEQESNECKMNPCKNNSTCTDLYKSYRCECTSGWTGQNCSEEINECDSDPCMNGGLCHESTIPGQFVCLCPPLYTGQFCHQRYNLCDLLHNPCRNNSTCLALVDANQHCICREEFEGKNCEIDVKDCLFLSCQDYGDCEDMVNNFRPGFSGSLCEIEINECSSEPCKNNGTCVDLTNRFFCNCEPEYHGPFCELDVNKCKISPCLDEENCVYRTDGYNCLCAPGYTGINCEINLDECLSEPCLHDGVCIDGINHYTCDCKSGFFGTHCETNANDCLSNPCLHGRCTELINEYPCSCDADGTSTQCKIKINDCTSIPCMNEGFCQKSAHGFTCICPRGYTGAYCEKSIDNCAEPELNSVICLNGGICVDGPGHTFDCRKACLYNCDNAKTRQESKELNKQQD”, the protein production entry is “failed”.

“MDEAYKMRCDWYHHGELVSGGESESKFSQLNDEVVELYQAAEYLDEEFAGMVHLGEIVERDDKKEDEFLAKLADAETPLYPSCFNHSKLSAIMSLFTLKTKNGWSDKSHNDLLETLPEMLLEDNVLHSSLYEVKKFLKSFDMG”: the protein production entry is recorded as “failed”.

With “MDEGCVIAFLVWVDNGECILERQSAPDELNLFDIILVAKEQWRLLLAVPLLLAVLAAGISLAMPDQYTAKALVNIPAPVGAAGGVNIVQSTSLLEQAVEKFQLQRYYAVEDNRSALLALSNVVKTTAGKDGLLEISATDRNAEQAARLGNYLADLTRQHILDGNLTEQSKRYFVLQKRLDVESEQVSQLSRKVAQLVPDQEAALGGEGMQLISGFATLEAQLAFQNVQAAGNSGAVSNLQSSVMQLRASLELANPKVRQMSNEQLAGLRDLYFHRALAAELQRQVSLAKSLADQDVQIVLKASAPLEKSGPKRTLIVLLAGLVGLMLAIALIVCKRQWRELSNRFAKNTAA”, the protein production entry is given as “failed”.

For the sequence “MDEGRRINIPKIGAVKCKFHRLLEGTPKTLQIVLDVNEWYAVYTCEVPVQPLPETGSTVGVDVGTRYFAITSDGEFVHNPRHLGSALKKLRVQQRTVSRRKKGGNRRRKAVGQVAKTHRKIRRSRQDFHHKVAVKLVRENDLIAHEDLRVSNVVKSNLARSISDVGWSAFFDILRGKAESAGRVVVRVPPQYTSQRCHACGHTCRENRNNEVFKCVSCGHEDHADWNAAKNILGRAVPSGVNGSGVSHAVA”, the protein production entry is listed as “failed”.

For the sequence “MDEILTNTATPEVGGVAQLSPSAARTKARIALAVMLVPLFGTLEAIRLWFTGQVHALDFILFAVFYAVQMFGVSMGYHRYLAHRAFKTSRLMSSLMLIAGCMAAQGPILFWVTTHRRHHTYSDQHGDPHSPNLMGQSRWQRAKGLWHAHMPWMLAPDMSSWNFFAPDILRDRRLFFYNQTYLFWVALGVILPGVIGGLVSQSWSGAWSGLIFGGLARIFVANQAAWCVGSICHRYGARPFVTHDQSTNNWIVAFLTFGEGLQNNHHAFPAWYRHGVHWWEPDLSGWTLALMGKLRLVSDLRSPSQAMIDKVRKRQASS”, the protein production result is on record as “failed”.

Consider “MDEKEKNLNENSENESTPKREVEDTLHTPESAQPVQETPIVEGVTPEGEKFAGATEDAAEASSTNAFFEEASNKESEPARPAPGPRRAGTTGGGAVPPNRVNNGGSGNGNGEPPKRGKHFIGYFLTALIGVIIGGLIIFFVAWDNGDNADTTSNSNNKATKVEKVSVDTTSDVTKAVDKVQDAVVSVLNYQSSSSLDGTTTSEQEASSGSGVIYKKANGKAYIVTNNHVVADANKLEVTFTNGKKSEAKLLGTDEWNDLAVLEIDDKNVTTVAAFGDSDSLKLGEPAIAIGSPLGTEFSGSVTQGIISGLNRAVPVDTNGDGTEDWEADVIQTDAAINPGNSGGALINIEGQVIGINSMKISMENVEGISFAIPSNTVEPIIEQLETKGEVERPSLGVSLRDVDTIPETQQKNILKLPDSVDYGAMVQQVVSGSAADKAGLKQYDVIVELNGQKVTNSMTLRKILYGNDVKIGDKVKVKYYRDGKEKSTDIKLEAAKTTT”, for which the protein production entry is “failed”.

In the case of “MDELELRIRKAEKLVQDAKKEFEMGLYERCCSTAYYAMFHAAKAMLLGYGRDSKTHRGTIYLIWECREELGLSDDDCSKLSRAFDLREESDYGIYKEVSKDLAIKILKDAEIFVQKAKNAVNKNR”, the protein production result is “not failed”.

As to “MDELKLYTYIAVFSTFALYFAIAWWARAGSTSDFYVAGGGITPMQNGMAIGADWMSAASFISMAGLIAFLGYGGSVFLMGWTGGYVLLAMLLAPYMRKHGKFTVPEFIFDRYYSKTARIVAVACLIIASLTYIIGQMKGVGVAFSRFLEVDYGLGLGIGMFVVWVYAVLGGMKGITYTQIAQYVVMIFAYTIPAIFISLQLTGNPIPQLGLGSTLADGSGVYLLDKLDMVVTDLGFKEYTTSNLGGTLNMFAYTISLMIGTAGLPHVIMRFFTVPSVQAARQSAGYALVFIGLLYTVAPAVGAMARLNLMNTIEPTAGQNLVYDERPQWFKDWEKTGLLKFEDKNGDGKIQYTSNATDQTVTKINTMTGKEIVVVPNEMVKVDRDIMVLANPAIANLPNWVIALVAAGGLAAALSTAAGLLLAISSSISHDLMKGVLTPDLSEKNELLAGRVVMTIAILVSGYLGLHPPGFAAGTVALAFGLAASSIFPALMMGIFSKKMSGTAAISGMVAGIGVTMMYVFQHKGIMFIPGTSFLGDMGKDWFFGISPNAFGAVGAIVNFGVAFIVLQFTGPCPANIVAMVENMRAPGDCAAAHDH”, the protein production entry is recorded as “failed”.

For the sequence “MDELRQKLQYSSFELEAVKAKANEETKLHQEEVKNLLHLLKLARQERDEAKDQLQKLLTIKTNSSITESNSHGSSPVDSFFEPVSSSEFSNFNMVPEPINQVKFKNRQQLVNRNLKKIDPVDALMDEIIKGKALPEKGKLLQTVMESGPLLQTLLVAGPLPRWRNPPPLQQSFRVPPISNSYGCLPATTTTSMLNFRGCSVPRIATGIEVATKRQRFH”, the protein production entry was “failed”.

For “MDEMRPPPRSRTIYLLPNLFTTAGLFSGFYAIIAAANGQFVQAAMAVFVAAVMDGLDGRVARLTNTSSEFGVQYDSLADLVSFGMAPALVMYHWSLSALKYDSSVMGRVGWSAAFLYAACAALRLARFNTQVGVVDKRWFIGLASPAAAGLMMSFVWAFADDSLGFDGEQLRYVALAVTVVSALLMVSRIRFWSFKGGARGPRADRVPFLALAIATVVIALLVIDLARSLLVIGVLYALSGPLMWLWRRWRRVPELP”, the protein production result is given as “failed”.

On to “MDEQAVSTSMKTVYIRIYTSVLYTSYTKPGNWSAVDRSAWSVSCSNVYADDDAKYGAHLAIDGEINTTWFTWGVANAGECWWNTVLDRPVTLTGFSVTKQSAYGSGYNLRSAEIKVRKEGETEWVTYPRVLTFRNFKGADPQYAAIEPPIPNVKEFRINCLTPDNYTGFAEINLYVKQLEHHHHHH”, for which the protein production result was “not failed”.

With “MDESKKISLGQFFTPTHIVKYMIGLMTKNKNASILEPSSGNGVFLDSLIQLGYTNLTSYEIDGDIISHPFVINSSFITSYDKPQYDSIIGNPPYVRWKNLSELQKKELKDNSIWKMYCNSLCDYFYIFIIKSILQLKVGGELIFICPDYFFSTKNAEGLRKFLINNGSFEKIILFNESKVFHGVSSSVVIFKYIKGKNIDNINIINIDSKSPIKSEDIE”, the protein production result is recorded as “failed”.

With “MDEVLLVKKLVEDAIVPTRGSKCAAGIDLYSNTNFIIQPHERFLVSTGVSVQIPHQCYGRIAPRSSLALKYGIDVGAGVIDEDYRGEIKVILFNHSNEIFNGRKGDRIAQLIIERISYCRISEVKELNTTDRGTNGFGSTGK”, the protein production entry is listed as “not failed”.

Consider “MDEYEDSQSPAPSYQYPKETLRKRQNSVQNSGGSVSSRFSRKSFKLDYRLEEDVTKSKKGKDGRFVNPWPTWKNISIPNVLRWLIMEKNHSGVPGSKEELDKELPVLKPYFVSDPEDAGVREAGLRVTWLGHATLMVEMDELIFLTDPMFSSRASPSQYMGPKRFRRPPCTISELPTIDAVLISHNHYDHLDYGSVLALNERFGSELRWFVPLGLLDWMQKCGCENVIELDWWEENCVPGHDKVTFVFTPSQHWCKRTLLDDNKVLWGSWSVLGPWSRFFFAGDTGYCPAFEEIGKRFGPFDLAAIPIGAYEPRWFMKYQHADPEDAVRIHIDLQTKRSVAIHWGTFALANEHYLEPPVKLNEALERYGLSCEDFFILKHGESRYLNTDDRAFEET”, for which the protein production entry is given as “failed”.

Consider “MDFFAIDPIGLPHTSLIFYLSSLLIALLLVFLTFQAYRLKSHRYFFLFLQLSQVIGLYTWYVLRGFPLDEALPLYHCRIAMLAIFFLPDRNKFKQLFMVLGIGGTFLALLSPDLYPFRLWHVANVSFYFGHYALLVNGLIYLLRFYDASQLRLLSVVRYLATVNFLLLLVSLATKGNYGFVMDIPVIHTRHLLLNFVIVTSGLTFMVKITEYFYLKFGEAQQLALAFSKEK”, for which the protein production entry is on record as “failed”.

Take “MDFFHHQDTARQRTGLLVMLFTLAVLAITGLVSVISIGIYFYFTGEPFTTQSIISYCLLSFVGVLLVVSISSFIRLSELNANGGRGVAESIGGKLISTDTSNAKHRQLLNVVEEMSIASGIPVPPVYVMAEEHGINAFAAGMSIDDAVIGVTQGALDAFSRDELQGVIAHEFSHILNGDMRLNTRLIGALFGITCIAHFGHLILDNSNSTRHVSRSSSDSNKGFAVIILIAIVCLVLGWLGTLFGNMIKAAISRQREFLADASAVQFTRNDQGIAGALKKIGSNVQGSTLNTKASDEMSHMMFGQSKLSGFSGLFATHPPLDERIRRIEPNWDGSYAQHSHAQNTAFDNEQVSGFAVGGGSPASQSASPSEQLSETGQQLISQLPPELVDIAREPYSARFIAFALIFDGSDIQREMIKSYVPLASQSTLLPWLDYDLPLHLRFPLLELALPALKSLSEAQKISLCKVLRELSETDNQYSLAEWCVINLLEKQLLASFGFIKQHKSLKQLEESVFWLLRELAWVSHSQADKAQRAYHCALAHLGFPEVKLEPANSNWHLSRAALELLLQLKPNDRRMFVKACRLAIESDGEITVAEGEIYRVIACFLEVPEPPLTISG”: the protein production result is on record as “failed”.

For the sequence “MDFKIEKYLLKKAEELAFITIKHGGEFKLKSYEVPKGGLDVPIKNEVLVKGIKEKTAQDKLNSMSIADAMIYIIGIDSKFKNNAEYEKFLNALSKDIDLDLKSYMGYMSRKYFEIGEHTDSLIYIKAFITMYPDDLDAMYNYAIVCQEIAKQYQKDMDDKAMNAFLLEAMAKLEKVIDVDENFALGYYHLGYHYYNQGQYLKTKLTWEEALRLGLDADLVAEVQENLGKMDFKVQYEEGYTLVFQGKFKEGLEKLLPLEEEHMDWWNLLFMIALGYKGMGEIEQAKMYLEKILIIKPNQVDTIVELGLCEAYKNNLDKAIEYFEQAAKIKEDPEILCNLGMAYLNNGDIDDATYYIERAYELNPQDEITIVCLRELGINK”, the protein production entry was “failed”.

“MDFLLRTITMNERRALGFGVAAVLLWSTVATAFKITLEHFTPTQMLTIASAVSILALAGVAAYQKTLSQLIDTFLANPLYYILLGAINPLAYYLVLFKSYDLLPASQAQPLNYSWAITLTLMAAVFLGQKIRKQDWIACVLGYLGVIVIATKGDVLALEFDSPLGVGLALFSTLLWAGYWILNTKNKADPILGLLLGFLVALPVAIGLSIYEGAPWAQIPMSGWAAVSYVGLFEMGVTFVLWLSALRLTQNTARISNLIFASPFISLLLLANIIGEEIHPSTLIGLIMIVCGLLIQQFFGKKEELQTEQ”: the protein production result was “failed”.

These data come from a protein production outcome set (Wang et al. 2014).
